# Measurements reported in patent US20050079574A1 (Genentech, published 2005).
# Substitutions are numbered along the chain they refer to. Numbers in names are those of the source.
# B1: RIG scaffold (VHH) (VHH)
# VHH: DVQLQESGGGLVQAGGSLRLSCAASGRTGSTYDMGWFRQAPGKERESVAAINWDSARTYYASSVRGRFTISRDNAKKTVYLQMNSLKPEDTAVYTCGAGRIGRSVFNLRRESWVTWWGQGTQVTVSSAGGMDYKDDDDK
# notes: also called RIG-Parent Scaffold; RIG VHH domain
# B2: RIG scaffold alanine point mutant V100jA (VHH, name in Kabat numbering)
# VHH: B1 VHH with V114A
# B3: RIG scaffold alanine point mutant S100A (VHH, name in Kabat numbering)
# VHH: B1 VHH with S104A
# B4: RIG scaffold with mutation T57E (VHH, name in Kabat numbering)
# VHH: B1 VHH with T58E
# B5: VLK scaffold (VHH) (VHH)
# VHH: DVQLQESGGGLVQAGGSLRLSCAASGRTGSTYDMGWFRQAPGKERESVAAINWDSARTYYASSVRGRFTISRDNAKKTVYLQMNSLKPEDTAVYTCGAGVLKRRGSSVAIFTRVQSWGQGTQVTVSSAGGMDYKDDDDK
# B6: llama anti-HCG monobody variable heavy chain (VHH), wild type (VHH)
# VHH: DVQLQESGGGLVQAGGSLRLSCAASGRTGSTYDMGWFRQAPGKERESVAAINWDSARTYYASSVRGRFTISRDNAKKTVYLQMNSLKPEDTAVYTCGAGEGGTWDSWGQGTQVTVSSAGGMDYKDDDDK
# notes: also called wild type anti-HCG scaffold; llama a-HCG
# B7: LLR scaffold (VHH) (VHH)
# VHH: DVQLQESGGGLVQAGGSLRLSCAASGRTGSTYDMGWFRQAPGKERESVAAINWDSARTYYASSVRGRFTISRDNAKKTVYLQMNSLKPEDTAVYTCGAGLLRRGVNATPNWFGLVGWGQGTQVTVSSAGGMDYKDDDDK
# B8: RLV scaffold (VHH) (VHH)
# VHH: DVQLQESGGGLVQAGGSLRLSCAASGRTGSTYDMGWFRQAPGKERESVAAINWDSARTYYASSVRGRFTISRDNAKKTVYLQMNSLKPEDTAVYTCGAGRLVNGLSGLVSWEMPLAWGQGTQVTVSSAGGMDYKDDDDK
# Target: T1, Protein A (UniProt P38507 37-477)
# T1 construct: also called Protein A (Sigma)
# Assay: BiaCore, Protein A on CM5 chip
row,Binder,Kd
1,B1,800 nM
2,B2,800 nM
3,B3,600 nM

# Target: T1, Protein A
# Assay: Biacore
row,Binder,binding result
1,B4,no binding

# Target: T1, Protein A
# Assay: BiaCore 3000, Protein A on CM5 chip, steady state fit
# Experimental: The affinity for Protein A for each of the individual clones was determined using a BiaCore 3000. Protein A was coated onto CM5 chip, as was BSA and VEGF. The latter two proteins were used as negative controls. Binding isotherms were calculated the steady state response differentials for a series of protein concentrations. The equilibrium dissociation constant (Kd) was determined by fitting the resulting curves (KaleidaGraph, Synergy Software) to the following equation: Ra=[…](Rmax−Rmin)/((1+C/Kd)ⁿ) Where “Ra” is the measured response differential, “Rmax” is the maximal response differential, “Rmin” the minimal response differential and “C” is the ligand concentration. Analysis of NNS Library
row,Binder,Kd
1,B5,900 nM
2,B6,1600 nM
3,B7,3300 nM
4,B8,1800 nM
5,B1,800 nM
